Source: the supplement of paper PMC9112550, “Optimization of the antimicrobial peptide Bac7 by deep mutational scanning” (BMC Biology, 2022)

These sequences were tested on Escherichia coli TOP10 (assay: shrunken log2 fold change of peptide-encoding DNA abundance (4.5 h post-induction vs induction); higher = less antimicrobial activity (less host growth inhibition)). Conditions: time post-induction: 4.5 h; library: site-saturation at positions 5, 18, 19, 20.
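Further: peptides expressed intracellularly from a pBAD plasmid library in pooled LB shake-flask culture, induced with 0.3% L-arabinose, DNA abundance read by NGS, three biological replicates, DESeq2 with apeglm shrinkage.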

Question: For RRIRDRPPRLPRPRPRPGSFPRP, which “shrunken log2 fold change” value is on record?
Answer: 0.0331

Question: With RRIRDRPPRLPRPRPRPGTMPRP as the sequence, how does the “shrunken log2 fold change” value read?
Answer: -0.302

Question: RRIRDRPPRLPRPRPRPGTNPRP was tested. Which “shrunken log2 fold change” value did it give?
Answer: -0.344

Question: How did the “shrunken log2 fold change” value turn out when RRIRDRPPRLPRPRPRPGVRPRP was run?
Answer: 0.502

Question: For RRIRDRPPRLPRPRPRPGVVPRP, which “shrunken log2 fold change” value is on record?
Answer: 0.708

Question: Which “shrunken log2 fold change” value does the source give for RRIRDRPPRLPRPRPRPGWQPRP here?
Answer: 0.22

Question: For RRIRDRPPRLPRPRPRPGYHPRP, which “shrunken log2 fold change” value is on record?
Answer: -0.071

Question: RRIRDRPPRLPRPRPRPGYPPRP was tested. Which “shrunken log2 fold change” value did it give?
Answer: 0.0463

Question: For RRIRDRPPRLPRPRPRPHAIPRP, which “shrunken log2 fold change” value is on record?
Answer: -0.0018

Question: RRIRDRPPRLPRPRPRPHAMPRP was tested. Which “shrunken log2 fold change” value did it give?
Answer: 0.158

Question: Which “shrunken log2 fold change” value does the source give for RRIRDRPPRLPRPRPRPHAQPRP here?
Answer: -0.0623

Question: For RRIRDRPPRLPRPRPRPHCNPRP, which “shrunken log2 fold change” value is on record?
Answer: -0.226

Question: How did the “shrunken log2 fold change” value turn out when RRIRDRPPRLPRPRPRPHFMPRP was run?
Answer: -0.47

Question: Which “shrunken log2 fold change” value does the source give for RRIRDRPPRLPRPRPRPHHEPRP here?
Answer: 0.0131

Question: For RRIRDRPPRLPRPRPRPHHMPRP, which “shrunken log2 fold change” value is on record?
Answer: -0.128

Question: RRIRDRPPRLPRPRPRPHKAPRP was tested. Which “shrunken log2 fold change” value did it give?
Answer: -0.0142

Question: Which “shrunken log2 fold change” value does the source give for RRIRDRPPRLPRPRPRPHKDPRP here?
Answer: -0.239

Question: Which “shrunken log2 fold change” value does the source give for RRIRDRPPRLPRPRPRPHKHPRP here?
Answer: -0.217

Question: How did the “shrunken log2 fold change” value turn out when RRIRDRPPRLPRPRPRPHLNPRP was run?
Answer: -0.152

Question: Which “shrunken log2 fold change” value does the source give for RRIRDRPPRLPRPRPRPHNCPRP here?
Answer: 0.0686

Question: RRIRDRPPRLPRPRPRPHNIPRP was tested. Which “shrunken log2 fold change” value did it give?
Answer: -0.53

Question: With RRIRDRPPRLPRPRPRPHNYPRP as the sequence, how does the “shrunken log2 fold change” value read?
Answer: -0.423

Question: With RRIRDRPPRLPRPRPRPHPCPRP as the sequence, how does the “shrunken log2 fold change” value read?
Answer: 0.0731

Question: With RRIRDRPPRLPRPRPRPHQQPRP as the sequence, how does the “shrunken log2 fold change” value read?
Answer: -0.0346

Question: With RRIRDRPPRLPRPRPRPHQTPRP as the sequence, how does the “shrunken log2 fold change” value read?
Answer: 0.0267

Question: How did the “shrunken log2 fold change” value turn out when RRIRDRPPRLPRPRPRPHRIPRP was run?
Answer: -0.00804

Question: How did the “shrunken log2 fold change” value turn out when RRIRDRPPRLPRPRPRPHRSPRP was run?
Answer: -0.015

Question: With RRIRDRPPRLPRPRPRPHSQPRP as the sequence, how does the “shrunken log2 fold change” value read?
Answer: -0.0254

Question: For RRIRDRPPRLPRPRPRPHTKPRP, which “shrunken log2 fold change” value is on record?
Answer: 0.0345

Question: RRIRDRPPRLPRPRPRPHTQPRP was tested. Which “shrunken log2 fold change” value did it give?
Answer: -0.455

Question: RRIRDRPPRLPRPRPRPHWNPRP was tested. Which “shrunken log2 fold change” value did it give?
Answer: -0.201

Question: Which “shrunken log2 fold change” value does the source give for RRIRDRPPRLPRPRPRPHYPPRP here?
Answer: -0.265

Question: Which “shrunken log2 fold change” value does the source give for RRIRDRPPRLPRPRPRPHYRPRP here?
Answer: -0.562

Question: For RRIRDRPPRLPRPRPRPIAGPRP, which “shrunken log2 fold change” value is on record?
Answer: -0.0166

Question: With RRIRDRPPRLPRPRPRPIAHPRP as the sequence, how does the “shrunken log2 fold change” value read?
Answer: 0.41

Question: For RRIRDRPPRLPRPRPRPIAPPRP, which “shrunken log2 fold change” value is on record?
Answer: 0.0634

Question: For RRIRDRPPRLPRPRPRPIASPRP, which “shrunken log2 fold change” value is on record?
Answer: 0.194

Question: RRIRDRPPRLPRPRPRPIAWPRP was tested. Which “shrunken log2 fold change” value did it give?
Answer: 0.0633

Question: Which “shrunken log2 fold change” value does the source give for RRIRDRPPRLPRPRPRPICEPRP here?
Answer: 0.229

Question: Which “shrunken log2 fold change” value does the source give for RRIRDRPPRLPRPRPRPIDSPRP here?
Answer: -0.0258

Question: RRIRDRPPRLPRPRPRPIGDPRP was tested. Which “shrunken log2 fold change” value did it give?
Answer: -0.00843

Question: With RRIRDRPPRLPRPRPRPIGIPRP as the sequence, how does the “shrunken log2 fold change” value read?
Answer: 0.00854

Question: With RRIRDRPPRLPRPRPRPIGYPRP as the sequence, how does the “shrunken log2 fold change” value read?
Answer: -0.174

Question: How did the “shrunken log2 fold change” value turn out when RRIRDRPPRLPRPRPRPIHEPRP was run?
Answer: -0.0852

Question: For RRIRDRPPRLPRPRPRPINAPRP, which “shrunken log2 fold change” value is on record?
Answer: 0.00476

Question: For RRIRDRPPRLPRPRPRPINMPRP, which “shrunken log2 fold change” value is on record?
Answer: 0.00272

Question: With RRIRDRPPRLPRPRPRPIRCPRP as the sequence, how does the “shrunken log2 fold change” value read?
Answer: -0.0116

Question: RRIRDRPPRLPRPRPRPIRFPRP was tested. Which “shrunken log2 fold change” value did it give?
Answer: -0.0156

Question: With RRIRDRPPRLPRPRPRPISGPRP as the sequence, how does the “shrunken log2 fold change” value read?
Answer: 0.0039

Question: For RRIRDRPPRLPRPRPRPISLPRP, which “shrunken log2 fold change” value is on record?
Answer: -0.0081

Question: Which “shrunken log2 fold change” value does the source give for RRIRDRPPRLPRPRPRPIYPPRP here?
Answer: -1.42

Question: For RRIRDRPPRLPRPRPRPKCDPRP, which “shrunken log2 fold change” value is on record?
Answer: 0.0437

Question: For RRIRDRPPRLPRPRPRPKCPPRP, which “shrunken log2 fold change” value is on record?
Answer: 0.149

Question: For RRIRDRPPRLPRPRPRPKCRPRP, which “shrunken log2 fold change” value is on record?
Answer: -0.00674

Question: For RRIRDRPPRLPRPRPRPKDRPRP, which “shrunken log2 fold change” value is on record?
Answer: 0.0874

Question: Which “shrunken log2 fold change” value does the source give for RRIRDRPPRLPRPRPRPKDTPRP here?
Answer: 0.0607

Question: How did the “shrunken log2 fold change” value turn out when RRIRDRPPRLPRPRPRPKEAPRP was run?
Answer: -0.0217

Question: With RRIRDRPPRLPRPRPRPKEYPRP as the sequence, how does the “shrunken log2 fold change” value read?
Answer: -0.0963

Question: RRIRDRPPRLPRPRPRPKGDPRP was tested. Which “shrunken log2 fold change” value did it give?
Answer: 0.0039

Question: How did the “shrunken log2 fold change” value turn out when RRIRDRPPRLPRPRPRPKHLPRP was run?
Answer: -0.0209

Question: Which “shrunken log2 fold change” value does the source give for RRIRDRPPRLPRPRPRPKIWPRP here?
Answer: 0.127

Question: With RRIRDRPPRLPRPRPRPKKWPRP as the sequence, how does the “shrunken log2 fold change” value read?
Answer: -0.0255

Question: With RRIRDRPPRLPRPRPRPKLCPRP as the sequence, how does the “shrunken log2 fold change” value read?
Answer: -0.0785

Question: RRIRDRPPRLPRPRPRPKLKPRP was tested. Which “shrunken log2 fold change” value did it give?
Answer: -0.0223

Question: How did the “shrunken log2 fold change” value turn out when RRIRDRPPRLPRPRPRPKLMPRP was run?
Answer: -0.146

Question: With RRIRDRPPRLPRPRPRPKLTPRP as the sequence, how does the “shrunken log2 fold change” value read?
Answer: -0.0121

Question: With RRIRDRPPRLPRPRPRPKLYPRP as the sequence, how does the “shrunken log2 fold change” value read?
Answer: 0.0658

Question: Which “shrunken log2 fold change” value does the source give for RRIRDRPPRLPRPRPRPKMDPRP here?
Answer: 0.0675

Question: With RRIRDRPPRLPRPRPRPKMMPRP as the sequence, how does the “shrunken log2 fold change” value read?
Answer: -0.154

Question: RRIRDRPPRLPRPRPRPKNDPRP was tested. Which “shrunken log2 fold change” value did it give?
Answer: -0.103

Question: RRIRDRPPRLPRPRPRPKNNPRP was tested. Which “shrunken log2 fold change” value did it give?
Answer: -0.556

Question: How did the “shrunken log2 fold change” value turn out when RRIRDRPPRLPRPRPRPKPGPRP was run?
Answer: 0.654

Question: How did the “shrunken log2 fold change” value turn out when RRIRDRPPRLPRPRPRPKRMPRP was run?
Answer: 0.0969

Question: For RRIRDRPPRLPRPRPRPKSHPRP, which “shrunken log2 fold change” value is on record?
Answer: -0.204

Question: Which “shrunken log2 fold change” value does the source give for RRIRDRPPRLPRPRPRPKSVPRP here?
Answer: 0.0458
